Measurements reported in the supplement of paper PMC9170038.

Tested on: MS2 coat protein
Test: apparent KD of MS2 coat protein; designed switch direction (-1 OFF switch, 1 ON switch): -1; higher = weaker reporter binding
Outline: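 The apparent KD reported per design is the median over clusters of curve fits to normalised cluster fluorescence. The RNA switches were transcribed on Illumina chips by stalled E. coli RNA polymerase. SNAP-549-labelled MS2 coat protein was titrated from 0.7 or 1.5 nM, doubling up to 3 µM, in Tris-HCl pH 7.5 buffer containing KCl, MgCl2, BSA, DTT, tRNA and Tween-20, with no input, 200 uM small-molecule ligand, or an oligonucleotide input.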

[1] = input ligand: microRNA oligo, concentration not stated
[2] = Eterna round: R95, input ligand: microRNA oligo, concentration not stated
[3] = Eterna round: R95, input ligand: FMN 200 uM
[4] = Eterna round: R95, input ligand: none

Sequence	apparent KD of MS2 coat protein (input ligand: FMN 200 uM)	apparent KD of MS2 coat protein (input ligand: none)	apparent KD of MS2 coat protein [1]	apparent KD of MS2 coat protein [2]	apparent KD of MS2 coat protein [3]	apparent KD of MS2 coat protein [4]
AUAAUGUGAGGAUAUCAGUCGACUAGCGAUAGCUAGUCGACUGAGAAGGCACAUGAGGAUCACCCAUGUGUUUC [E4/15-A4] (Eterna round: R97, puzzle: Exclusion 4)	44.4 nM	16.8 nM				
AAUAUGUGAGGAUAUUAGUUGUACGUCAAUAGACGUAUAAGUGAGAAGGCACAUGAGGAUCACCCAUGUUCCUG [Omei Ex4 Mod of Mat's R95 mod of Omei v3] (Eterna round: R97, puzzle: Exclusion 4)	98.2 nM	23.7 nM				
UACCUAUAGGUAGGAUAUCAUUGCGAUUAGCUAUGAGAAGGACCACAUGAGGAUCACCCAUGUCCUCCAAUUAACCGAAAGGUA [Fiskers ExNg1 - 2] (Eterna round: R96, puzzle: Exclusion NG 1)	77.3 nM	50.4 nM	39.7 nM			
GUAAUGCUAGGAUAUCGACAAAUUUACAUGAGGAUCACCCAUGUGAACCCUGUGUGGUAACGAGAAGGAGUCAGCU [Eternabot (L2) Solution 54] (Eterna round: R97, puzzle: Exclusion 5)	39.1 nM	53.5 nM				
AGGUAACAUGAGGAUCACCCAUGUCAGGAUAUCAGUAAGAUUAGAAUAGAGUAGAGGAUGAGAAGGGACUAUAU [Excluse me! 19- Jieux - Exclusion 1] (puzzle: Exclusion 1)				42.7 nM		
CCAGGCAGUGUGAGGAUAUGCUGGUCCUUGGAUCAGCAGAAGGCACAUGAGGAUCACCCAUGUGAAGAGCUUGG [JL bmx4 3.24] (puzzle: Brourd's mod of Exclusion 4)				24.1 nM		
AAUAAUUGUGACUUGGGUGACAUGAGGAUCACCCAUGUCACAAGCUUGUUGCUCGCCUUAUAAUUAACCCAUGUCAC [LRO Sensor-off var1-26 mod of Stov1-13-A1 by Brourd] (Eterna round: R97, puzzle: Sensor, turn-off variant 1)	70.5 nM	80.6 nM				
AUAAUGUAAGGAUAUCAGUCGACUAGCCUCGGCUAGUCGACUGAGAAGGUACAUGAGGAUCACCCAUGUGAUUA [E4/10-A2] (Eterna round: R97, puzzle: Exclusion 4)	762 nM	191 nM				
UAAUACAUCUAUGGGAGUAACAUGAGGAUCACCCAUGUAUGUCUUGUUUUUUGUUCGUCAUAGACUUUCUGAUCAGU [JR_SV3TOV1_Sub029] (puzzle: Sensor v3, turn-off variant 1)				175 nM	47.9 nM	52.2 nM
GUUGUUUAUGUAGGAUAUGCCAGGCGAGCCUAAGCAGAAGGACAUGAGGAUCACCCAUGUAUUGCGGUCUGCGUUCAGAUCGCU [salish99_ExNG1_r4_017] (Eterna round: R96, puzzle: Exclusion NG 1)	63.5 nM	23.7 nM	18.3 nM			
CUCGUGUGAGGAUAUCUAUUCCACGGACGGGAGUCUUGAUGAGAGAAGGCACAUGAGGAUCACCCAUGUAAUAA [Laveinxe] (puzzle: Exclusion 4)				105 nM		
GCCGAAAGUGUGAGGAUAUACCUAUGGAAACAUAGGUAGAAGGCACAUGAGGAUCACCCAUGUGUCCAAACGGC [Mat - Exclusion 4 - Eli Mod - D23] (Eterna round: R97, puzzle: Brourd's mod of Exclusion 4)	41.5 nM	16.5 nM				
ACAUGUCAUCGAGGAUAUUGUACACAUGAGGAUCACCCAUGUAUUCGGUUGCUCUCGCGUGAGUUCGAGAAGGCGAUGUACAUU [Ex NG2 #82] (Eterna round: R96, puzzle: Exclusion NG 2)	105 nM	29.3 nM	24.2 nM			
ACACAGCGAGGAUAUACAUGAGGAUCACCCAUGUGGCGGCCGUUACGGUAGGACUAGUGUAGAAGGCGCAUUGG [EX3 #34] (Eterna round: R97, puzzle: Exclusion 3)	203 nM	247 nM				
AACAAUAAGGAGGAUAUCGUAUCGGAAACGAUACGAGAAGGCUUAACAUGAGGAUCACCCAUGUUCUUCAAUAA [Fiskers Ex 6 - 24] (puzzle: Exclusion 6)				17.1 nM	19.1 nM	17.7 nM
UAUUAAACAAGCAGAUCCCACAUGAGGAUCACCCAUGUGCUCGUCUUAUAAGGUACUGUGACGAGAGUCACGGUACC [Mat - Sensor, turn-off var - Eli Mod - D63] (Eterna round: R97, puzzle: Sensor, turn-off variant 1)	42.5 nM	45.2 nM				

Sequence	apparent KD of MS2 coat protein (input ligand: FMN 200 uM)	apparent KD of MS2 coat protein (input ligand: none)	apparent KD of MS2 coat protein [1]	apparent KD of MS2 coat protein [2]	apparent KD of MS2 coat protein [3]	apparent KD of MS2 coat protein [4]
CGUGGACAUAACAAGCUUUACAUGAGGAUCACCCAUGUGAUCAUGCUCGUCUUAUGGUCCACGAAUUAAUUAAUUAG [Stov1/6-C2] (Eterna round: R97, puzzle: Sensor, turn-off variant 1)	19.2 nM	18.3 nM				
GACCUAUAGGUAGGAUAUCAUUGCGAUUAGCUAUGAGAAGGACCACAUGAGGAUCACCCAUGUCCUCCAAUUAACCAUAAGGUC [Fiskers ExNg1 - 5] (Eterna round: R96, puzzle: Exclusion NG 1)	98.7 nM	40.9 nM	34.6 nM			
UUUUGACAAGCGAGAUCCUACAUGAGGAUCACCCAUGUAGACCAUGGUUUCCAUGGUCUUUUUGCUCGUCUUGUGUG [jl TITIN mod 5] (Eterna round: R97, puzzle: Sensor, turn-off variant 1)	23.2 nM	23.4 nM				
UUUUUAAAUGAAGGAUAUACUUAACAUGAGGAUCACCCAUGUGGUGUUGUGAGUGAGUGAGUUUAGUAGAAGGUCAAUGAUUUU [JMF's solution 65] (Eterna round: R96, puzzle: Exclusion NG 2)	1250 nM	211 nM	196 nM			
AUAAUUAAUGCAGGAUAUCAGCACGUGUAGUGCUGAGAAGGGCACAUGAGGAUCACCCAUGUGAUCAAUUAAUAUUAAUAUUAU [ENG1/11-D3] (Eterna round: R96, puzzle: Exclusion NG 1)			48.4 nM			
CCUCGGUCAGGAUAUGGGCCAUGCGAUGAUGAAGCCUGGCGCCAGAAGGGACAUGAGGAUCACCCAUGUCCGUA [Eternabot (Original) Solution 37] (Eterna round: R97, puzzle: Exclusion 4)	71.3 nM	17.2 nM				
AAACGUAGACAGGAUAUCUGCGCCCUUGGUUAAAGAGAAGGGUCUACAUGAGGAUCACCCAUGUGGUGUAACUC [Dibedididi] (puzzle: Exclusion 6)				18.4 nM	13.8 nM	23.6 nM
UGUUGUCGCGCAGGAUAUGAGGAUCACCCAUGUAGAGGAUAUGAAAAGAAGGCUCUGAGGAUUACCCAGAAGGGCGGGACAACU [pwkr exNG2 2xF5 2xFMN.25] (Eterna round: R96, puzzle: Exclusion NG 2)	800 nM	400 nM	270 nM			
CAGGACUUAGGAUAUCAUGUGCGAGACAUGAGGAUCACCCAUGUAGGAAGCCGUCGCGGGUGAGAAGGAGGGCGAU [Exclusion 5 S1] (puzzle: Exclusion 5)				277 nM	266 nM	366 nM
GCAUGCUUUUUGCUCGUUUACAUGAGGAUCACCCAUGUACAUGGGUGAGCCGCAUGUACAGAAAGGAAAACUUUUUG [Alacar Attempt 2] (Eterna round: R97, puzzle: Sensor, turn-off variant 1)	21.1 nM	24.7 nM				
AAAAAACAAGGAUAUACGAAGGAGGGUUGUCUUAAUUUUUGACAUGAGGAUCACCCAUGUAGAAGGUGUUAAAA [JR_Exclusion2_Sub012] (puzzle: Exclusion 2)				186 nM	146 nM	188 nM
UUUUAACAUGAGGAUCACCCAUGUGAGGAUAUGGUAUUUUUUUUUUUUUUUUUUUUUUCCAGAAGGCACAUUUU [My solution] (puzzle: Exclusion 1)				35.1 nM	38.4 nM	74.9 nM
UCGGUGCGAGGAUAUACGUUUGCGCGUUUUCGUUUGCGCGUACAUGAGGAUCACCCAUGUAGAAGGCGCGCGGC [Apr-15 SS2-12] (puzzle: Exclusion 2)				11.8 nM		
GAAAAGGUAGGAUAUACGAAAACAAAGGGUAGAAACAAAACACAUGAGGAUCACCCAUGUAGAAGGACCAAAAG [salish99_ex2_r3_097] (Eterna round: R96, puzzle: Exclusion 2)			30.8 nM			
UGCCGUUGAGGAUAUACAUUGAAUUUGAUUCAUGUAAAACUACAUGAGGAUCACCCAUGUAGAAGGCAAUGGCU [Mat - Exclusion 2 - JL Mod - D63] (Eterna round: R97, puzzle: Exclusion 2)	25.7 nM	21.3 nM				
